Patent US12168773B2, “Engineered phosphoenolpyruvate carboxylase enzymes” (The Regents of the University of California, priority 2019, dated 2024)
Residue numbers refer to the chain shown, from its start. Numbers in names are those of the source.

B1: ZmPPC1 G678S: engineered Zea mays PPC1 with G678S substitution (G682S in SEQ ID NO:15) (protein)
chain: MASTKAPGPGEKHHSIDAQLRQLVPGKVSEDDKLIEYDALLVDRFLNILQDLHGPSLREFVQECYEVSADYEGKGDTTKLGELGAKLTGLAPADAILVASSILHMLNLANLAEEVQIAHRRRNSKLKKGGFADEGSATTESDIEETLKRLVSEVGKSPEEVFEALKNQTVDLVFTAHPTQSARRSLLQKNARIRNCLTQLNAKDITDDDKQELDEALQREIQAAFRTDEIRRAQPTPQDEMRYGMSYIHETVWKGVPKFLRRVDTALKNIGINERLPYNVSLIRFSSWMGGDRDGNPRVTPEVTRDVCLLARMMAANLYIDQIEELMFELSMWRCNDELRVRAEELHSSSGSKVTKYYIEFWKQIPPNEPYRVILGHVRDKLYNTRERARHLLASGVSEISAESSFTSIEEFLEPLELCYKSLCDCGDKAIADGSLLDLLRQVFTFGLSLVKLDIRQESERHTDVIDAITTHLGIGSYREWPEDKRQEWLLSELRGKRPLLPPDLPQTDEIADVIGAFHVLAELPPDSFGPYIISMATAPSDVLAVELLQRECGVRQPLPVVPLFERLADLQSAPASVERLFSVDWYMDRIKGKQQVMVGYSDSGKDAGRLSAAWQLYRAQEEMAQVAKRYGVKLTLFHGRGGTVGRGGGPTHLAILSQPPDTINGSIRVTVQGEVIEFCFSEEHLCFQTLQRFTAATLEHGMHPPVSPKPEWRKLMDEMAVVATEEYRSVVVKEARFVEYFRSATPETEYGRMNIGSRPAKRRPGGGITTLRAIPWIFSWTQTRFHLPVWLGVGAAFKFAIDKDVRNFQVLKEMYNEWPFFRVTLDLLEMVFAKGDPGIAGLYDELLVAEELKPFGKQLRDKYVETQQLLLQIAGHKDILEGDPFLKQGLVLRNPYITTLNVFQAYTLKRIRDPNFKVTPQPPLSKEFADENKPAGLVKLNPASEYPPGLEDTLILTMKGIAAGMQNTG
B2: ZmPPC1 T7781: engineered Zea mays PPC1 with T778I substitution (T782I in SEQ ID NO:15) (protein)
chain: B1 chain with S682G, T782I
B3: ZmPPC1 wild type: wild type Zea mays PPC1, C4 PEPC, SEQ ID NO:15 (protein)
chain: B1 chain with S682G
B4: AtPPC1 G678S: engineered Arabidopsis thaliana PPC1 with G678S substitution (alr-128), SEQ ID NO:11 (protein)
chain: MANRKLEKMASIDVHLRQLVPGKVSEDDKLVEYDALLLDRFLDILQDLHGEDLRETVQELYEHSAEYEGKHEPKKLEELGSVLTSLDPGDSIVIAKAFSHMLNLANLAEEVQIAYRRRIKKLKKGDFVDESSATTESDLEETFKKLVGDLNKSPEEIFDALKNQTVDLVLTAHPTQSVRRSLLQKHGRIRDCLAQLYAKDITPDDKQELDEALQREIQAAFRTDEIKRTPPTPQDEMRAGMSYFHETIWKGVPKFLRRVDTALKNIGIEERVPYNAPLIQFSSWMGGDRDGNPRVTPEVTRDVCLLARMMAATMYFNQIEDLMFEMSMWRCNDELRARADEVHANSRKDAAKHYIEFWKSIPTTEPYRVILGDVRDKLYHTRERAHQLLSNGHSDVPVEATFINLEQFLEPLELCYRSLCSCGDRPIADGSLLDFLRQVSTFGLSLVRLDIRQESDRHTDVLDAITTHLDIGSYREWSEERRQEWLLSELSGKRPLFGSDLPKTEEIADVLDTFHVIAELPADSFGAYIISMATAPSDVLAVELLQRECRVKQPLRVVPLFEKLADLEAAPAAVARLFSVDWYKNRINGKQEVMIGYSDSGKDAGRLSAAWQLYKAQEELVKVAKEYGVKLTMFHGRGGTVGRGGGPTHLAILSQPPDTINGSLRVTVQGEVIEQSFSEEHLCFRTLQRFTAATLEHGMRPPISPKPEWRALLDEMAVVATEEYRSVVFQEPRFVEYFRLATPELEYGRMNIGSRPSKRKPSGGIESLRAIPWIFAWTQTRFHLPVWLGFGSAIRHVIEKDVRNLHMLQDMYQHWPFFRVTIDLIEMVFAKGDPGIAALYDKLLVSEELWPFGEKLRANFEETKKLILQTAGHKDLLEGDPYLKQRLRLRDSYITTLNVCQAYTLKRIRDPSYHVTLRPHISKEIAESSKPAKELIELNPTSEYAPGLEDTLILTMKGIAAGLQNTG
B5: AtPPC1 wild type: wild type Arabidopsis thaliana PPC1, C3 PEPC, SEQ ID NO:1 (protein)
chain: B4 chain with S678G
B6: AtPPC1 T778I: engineered Arabidopsis thaliana PPC1 with T778I substitution (alr-139), SEQ ID NO:12 (protein)
chain: B4 chain with S678G, T778I
B7: AtPPC1 R886G: engineered Arabidopsis thaliana PPC1 enzyme with R886G substitution (protein, UniProt Q9MAH0 1-967, looked up, variant R886G)
Phosphoenolpyruvate …: B4 chain with S678G, R886G
B8: AtPPC1 A651V: engineered Arabidopsis thaliana PPC1 with A651V substitution (alr-108), SEQ ID NO:10 (protein)
chain: B4 chain with A651V, S678G

Legend:
[1] = test system: Zea mays PPC1 (ZmPPC1, C4 PEPC); test: malate dehydrogenase coupled PEPC enzymatic assay, maize C4 PPC1 and engineered variants; format: biochemical; details: for Km: 0-7.5 mM phosphoenolpyruvate, read-out: Km PEP; for Km / Vmax: 25° C, HEPES pH7.5; for increases in catalytic efficiency relative to wt ZmPPC1: Kcat/Km; for activity of C4 PEPC: substitution introduced into maize C4 PEPC (ZmPPC1)
Description: (§1) For both Arabidopsis C3 PPC1 (AtPPC1) and maize C4 PPC1 (ZmPPC1), the entire coding sequence for each was cloned into pET22b, which contains an amino-terminal 6×-HIS tag for protein purification, and expression was driven by the T7 promoter and lac operon. Relevant mutations were introduced by the Stratagene QuikChange mutagenesis kit using PCR amplification. Both wild type and mutant cDNA constructs were sequenced entirely following cloning into pet22b. Proteins were produced by growing transformed E. coli (BL21 CodonPlus) in autoinduction medium at 18° C. for 16 hours. Proteins were isolated by sonication of bacterial cells followed by passage over a nickel sepharose affinity column, elution with imidazole and separation on a GE SUPERDEX HILOAD 200 PG 16/60 all using an AKTA FPLC.
(§2) Enzyme analysis was conducted in vitro using protein that was generated by expression in E. coli using the pET22b vector. For expression, pET22b constructs were transformed into E. coli BL21-DE3 codon plus RIL cells and grown at 37° C. in autoinduction media until reaching an OD=1 after which these were transferred to 18° C. for 18 hours. Samples were collected and lysed by sonication. Protein was purified by passage through a His-trap nickel affinity column on an Akta FPLC and then eluted with 400 mM imidazole. Partially purified protein was then separated on an FPLC equipped with a HiPrep S200 size exclusion column (16/60) after which collected sample was concentrated by centrifugation to a final concentration of 4 mg/ml in 50% glycerol. Samples were stored at −20° C.
(§3) For enzymatic assays, a malate dehydrogenase coupled reaction was conducted with a range of substrate concentrations (0-7.5 mM phosphoenolpyruvate pyruvate) and a range of concentrations of allosteric inhibitor (0-50 mM malate). Assays were monitored using a Victor2 microplate reader at 25° C. Reactions consisted of […] PPC enzyme variants, 50 mM HEPES pH7.5, 10 mM MgCl2, 10 mM KHCO3 (carbonate substrate), 0.2 mM NADH, and 10 units/ml of malate dehydrogenase. Reaction time was 15 minutes and samples were measured on an ˜40 second interval. For measurement, which monitors loss of NADH, excitation wavelength was 340 nM and emission wavelength was 460 nM.

[2] = test system: Arabidopsis thaliana PPC1 (AtPPC1, C3 PEPC); test: malate dehydrogenase coupled PEPC enzymatic assay, Arabidopsis C3 PPC1 and engineered variants; format: biochemical; details: for Km: 0-7.5 mM phosphoenolpyruvate, read-out: Km PEP; for Km / Vmax: 25° C, HEPES pH7.5
Description: as §1, §2
as §3, with “nM. From these assays, the enzyme kinetics of Tables 4-1 and 4-2 were determined for each enzyme variant.” for “nM.”

[3] = test system: transgenic Arabidopsis seedlings; test: root growth analysis of transgenic Arabidopsis in the presence of aluminum; format: in vivo, Arabidopsis thaliana; details: day 7, 20° C, soaked gel, aluminum toxicity equivalent to about 50-100 μM; versus plants expressing wt AtPPC1
Description: Root growth was examined in transgenic Arabidopsis engineered to express wt AtPPC1, or a variant PEPC (G678S AtPPC1 or R886G AtPPC1) in a genotypic background devoid of expression of native AtPPC1. Seedlings from the transgenic Arabidopsis strains were grown at 20° C. in a soaked gel environment with aluminum toxicity equivalent to about 50-100 μM in the absence of agar. Root growth was assessed at day 7. […] This is consistent with the improved enzyme kinetics of the G678S AtPPC1 or R886G AtPPC1 enzymes described in Example 5.

Row | Molecule | Km [1] | Vmax [1] | Km [2] | Vmax [2] | other results
1 | B1 | 2660 ± 333 µM | 17.74 ± 1.04 units/mg | – | – | effects of the allosteric inhibitor malate relative to wt ZmPPC1 [1]: greatly reduce; increases in catalytic efficiency relative to wt ZmPPC1 [1]: ~200%; activity of C4 PEPC [1]: increased activity
2 | B2 | 1190 ± 104 µM | 14.05 ± 0.44 units/mg | – | – | effects of the allosteric inhibitor malate relative to wt ZmPPC1 [1]: greatly reduce; increases in catalytic efficiency relative to wt ZmPPC1 [1]: ~300%; activity of C4 PEPC [1]: increased activity
3 | B3 | 4620 ± 406 µM | 17.56 ± 2.35 units/mg | – | – | effect of malate on enzyme ([1]; at 50 mM malate): completely inhibited
4 | B4 | – | – | 433 ± 40 µM | 17.784 ± 0.44 units/mg | increase in catalytic efficiency over wt AtPPC1 ([2]; Kcat/Km relative to wt AtPPC1): ~5 fold; reduction in Km ([2]; compared with wt AtPPC1): 85%; root growth in the presence of aluminum [3]: large increase
5 | B5 | – | – | 2740 ± 166 µM | 24.992 ± 0.69 units/mg | –
6 | B6 | – | – | 1090 ± 27 µM | 14.738 ± 0.15 units/mg | –
7 | B7 | – | – | 1110 ± 36 µM | 12.586 ± 0.14 units/mg | root growth in the presence of aluminum [3]: large increase
8 | B8 | – | – | 956 ± 40 µM | 15.776 ± 0.25 units/mg | –
